Assay results from patent publication US20260078171A1.

Legend:
[1] = biological target: A021 (SARS-related coronavirus A021)
[2] = biological target: CS24 (SARS-related coronavirus CS24)
[3] = biological target: Civet 007-2004 (civet SARS-related coronavirus 007-2004)
[4] = biological target: Frankfurt 1 (SARS-CoV isolate Frankfurt 1)
[5] = biological target: GD-Pangolin (GD-Pangolin coronavirus)
[6] = biological target: LYRa11 (bat coronavirus LYRa11)
[7] = biological target: Rs4231 (bat coronavirus Rs4231)
[8] = biological target: SARS-CoV-1 (SARS-CoV)
[9] = biological target: SARS-CoV-2 (SARS-CoV-2)
[10] = biological target: SHC014 (bat coronavirus Rs SHC014)
[11] = biological target: WIV1 (bat coronavirus WIV1)
[12] = biological target: RaTG13 (bat coronavirus RaTG13)

Sequence of ADI-58125 (antibody) (VH): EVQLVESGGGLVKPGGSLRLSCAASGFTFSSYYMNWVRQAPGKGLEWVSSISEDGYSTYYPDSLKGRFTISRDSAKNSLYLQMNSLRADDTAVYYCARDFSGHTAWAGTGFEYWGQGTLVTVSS
Sequence of ADI-58125 (antibody) (VL): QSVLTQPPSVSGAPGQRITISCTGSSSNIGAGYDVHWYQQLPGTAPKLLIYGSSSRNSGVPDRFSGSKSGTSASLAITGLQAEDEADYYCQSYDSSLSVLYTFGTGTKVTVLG
Sequence of VYD222 (antibody) (VH): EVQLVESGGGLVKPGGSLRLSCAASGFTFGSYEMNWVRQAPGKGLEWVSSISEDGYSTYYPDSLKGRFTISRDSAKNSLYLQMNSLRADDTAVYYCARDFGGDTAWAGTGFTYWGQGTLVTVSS
Sequence of VYD222 (antibody) (VL): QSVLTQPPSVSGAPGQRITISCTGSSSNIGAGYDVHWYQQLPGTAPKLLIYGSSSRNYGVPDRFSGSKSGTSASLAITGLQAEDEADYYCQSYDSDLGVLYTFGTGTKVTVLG
Sequence of VYD224 (antibody) (VH): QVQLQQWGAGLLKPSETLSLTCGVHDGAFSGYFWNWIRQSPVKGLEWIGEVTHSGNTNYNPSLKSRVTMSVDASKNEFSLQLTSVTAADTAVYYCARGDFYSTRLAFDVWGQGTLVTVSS
Sequence of VYD224 (antibody) (VL): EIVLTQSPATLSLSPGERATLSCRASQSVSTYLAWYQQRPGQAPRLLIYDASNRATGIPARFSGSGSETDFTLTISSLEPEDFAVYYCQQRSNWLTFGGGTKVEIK

Substance | KD App [1] | KD App [2] | KD App [3] | KD App [4] | KD App [5] | KD App [6] | KD App [7] | KD App [8] | KD App [9] | KD App [10] | KD App [11] | KD App [12]
VYD222 (antibody) | 0.24 nM | 0.45 nM | 0.23 nM | 0.9 nM | 0.15 nM | 0.67 nM | 0.49 nM | 0.44 nM | 0.54 nM | 0.74 nM | 0.97 nM | 
ADI-58125 (antibody) | 1.07 nM | 0.79 nM | 0.57 nM | 1.83 nM | 1.03 nM | 0.96 nM | 1.53 nM | 1.02 nM | 3.2 nM | 2.72 nM | 1.32 nM | 
VYD224 (antibody) | 13.5 nM | 15.9 nM | 9.13 nM | 0.93 nM | 1.63 nM | 0.32 nM | 10.8 nM | 15.6 nM | 1.68 nM | 12.3 nM | 0.33 nM | 0.87 nM
